Target: mthK, O27564-2

## Calcium-gated potassium channel MthK (Methanobacterium thermoautotrophicum) (from UniProt O27564-1) L3D
  effect of a mutation on the interaction: disrupting interaction
